Consider 15 sequences from a protein production outcome set (Wang et al. 2014).

This data set can be described thus: label from the status in PepcDB records.
For “MKVLITDFDLFAKVGGGQTFYRSLIRKNPDIDFYYLIDKEARVTERPDNAHGVPFQEKYFLADLNNFFDVNPPKWVYRSFIRASNIATSVAGMEFDLIDSPDYEQWAIFLRPALDYHRVKFAKIALSLHGKISTTLKLDWFNQGKENIPLELEEWKQYATVDLRYGISKSYIDEWQSLSRFSAHYYHPLHFFELPQPLEAIASGDRPDLNFVGRTEKRKGPDIFIDIAWWLNRNLYHEANIIGPHSFNDTGTISSETYLRSMLGDRQSPVKFLPPKPQQELMGLFARKTVTFVPSRYDTLNLVALESLFSGCPTVVGGGAGVCRLLKEDFPDVPFVEIDLDNIYSCLPAIENILSDYNNYRRRLVDSVKNSTAIADSPILADIYQQTGQYEEEIRDELQSWYGQLMGYWVSTQENVSFLQPLKAQLKPTLKQIKNNLKSTAGQLKGKILQPLADDRNAQLVKAPNLLKKYKEAFNATEQTAKDLAEKIQMGWRLGSGYESEFQGVRGKLATNYRIDRVRLWRELARIEELRGNTLVSATYKVRALRALGSDQFGDLPFVLRTLTEYGFPKEMAAVSALYGQPSEREERCLSLIEQARLDNLANPAGDEYEIWDDRRGDGPYRASIIVSLYNAAAKLPLFLKTLQHQTLIKRGEAEVVLVDSGSPGNEYEVFKDLAPTLGYPLLYARSPQRETIQSAWNRGIKLAKSPYLAFLGVDETILPDCLEILAGELDQDPELDWAIGHSLVTNVDMQGGWVSDIMPYDRTGYEQDLVYLETCYLSWVGALYRKSIHERFGYYDQSFRGAGDTEFKNRVMPFIKSKVVDKMLGLFWNYPDERTTQSPATEIEDMRAWYLHRTLAGVKYAFQRRSPREVENLLYHCLGYRKSYCKHTSTDFDHAHNLVTYLEKVDPNAEALKYAPGIEALLGTYRSLDWLPKLSKFSPLNSMLTARKLTKQWEQEHQQSWPEDRLFSPHYSIFNDNRHEQHSFLWFTDITASKK”, the protein production entry was “failed”. Regarding “MASSSSTYRSSSSSDGGNNNPSDSVVTVDERKRKRMLSNRESARRSRMRKQKHVDDLTAQINQLSNDNRQILNSLTVTSQLYMKIQAENSVLTAQMEELSTRLQSLNEIVDLVQSNGAGFGVDQIDGCGFDDRTVGIDGYYDDMNMMSNVNHWGGSVYTNQPIMANDINMY”, the protein production result is “failed”. Under “MHEKLLTLCDCAFEARLIELEMRVSFQEQALTEISEALAETRLIGARNAELMRHLLEELGKVRNTLYEHPIDEPPPHY” stands “failed”; under “MEERMEMISERPKESMYSWNKTAEKSDFEAVEALMSMSCSWKSDFKKYVENRPVTPVSDLSEEENLLPGTPDFHTIPAFCLTPPYSPSDFEPSQVSNLMAPAPSTVHFKSLSDTAKPHIAAPFKEEEKSPVSAPKLPKAQATSVIRHTADAQLCNHQTCPMKAASILNYQNNSFRRRTHLNVEAARKNIPCAAVSPNRSKCERNTVADVDEKASAALYDFSVPSSETVICRSQPAPVSPQQKSVLVSPPAVSAGGVPPMPVICQMVPLPANNPVVTTVVPSTPPSQPPAVCPPVVFMGTQVPKGAVMFVVPQPVVQSSKPPVVSPNGTRLSPIAPAPGFSPSAAKVTPQIDSSRIRSHICSHPGCGKTYFKSSHLKAHTRTHTGEKPFSCSWKGCERRFARSDELSRHRRTHTGEKKFACPMCDRRFMRSDHLTKHARRHLSAKKLPNWQMEVSKLNDIALPPTPAPTQ”, “not failed”; under “MGSEDHGAQNPSCKIMTFRPTMEEFKDFNKYVAYIESQGAHRAGLAKIIPPKEWKPRQTYDDIDDVVIPAPIQQVVTGQSGLFTQYNIQKKAMTVGEYRRLANSEKYCTPRHQDFDDLERKYWKNLTFVSPIYGADISGSLYDDDVAQWNIGSLRTILDMVERECGTIIEGVNTPYLYFGMWKTTFAWHTEDMDLYSINYLHFGEPKSWYAIPPEHGKRLERLAIGFFPGSSQGCDAFLRHKMTLISPIILKKYGIPFSRITQEAGEFMITFPYGYHAGFNHGFNCAESTNFATLRWIDYGKVATQCTCRKDMVKISMDVFVRILQPERYELWKQGKDLTVLDHTRPTALTSPELSSWSASRASLKAKLLRRSHRKRSQPKKPKPEDPKFPGEGTAGAALLEEAGGSVKEEAGPEVDPEEEEEEPQPLPHGREAEGAEEDGRGKLRPTKAKSERKKKSFGLLPPQLPPPPAHFPSEEALWLPSPLEPPVLGPGPAAMEESPLPAPLNVVPPEVPSEELEAKPRPIIPMLYVVPRPGKAAFNQEHVSCQQAFEHFAQKGPTWKEPVSPMELTGPEDGAASSGAGRMETKARAGEGQAPSTFSKLKMEIKKSRRHPLGRPPTRSPLSVVKQEASSDEEASPFSGEEDVSDPDALRPLLSLQWKNRAASFQAERKFNAAAARTEPYCAICTLFYPYCQALQTEKEAPIASLGEGCPATLPSKSRQKTRPLIPEMCFTSGGENTEPLPANSYIGDDGTSPLIACGKCCLQVHASCYGIRPELVNEGWTCSRCAAHAWTAECCLCNLRGGALQMTTDRRWIHVICAIAVPEARFLNVIERHPVDISAIPEQRWKLKCVYCRKRMKKVSGACIQCSYEHCSTSFHVTCAHAAGVLMEPDDWPYVVSITCLKHKSGGHAVQLLRAVSLGQVVITKNRNGLYYRCRVIGAASQTCYEVNFDDGSYSDNLYPESITSRDCVQLGPPSEGELVELRWTDGNLYKAKFISSVTSHIYQVEFEDGSQLTVKRGDIFTLEEELPKRVRSRLSLSTGAPQEPAFSGEEAKAAKRPRVGTPLATEDSGRSQDYVAFVESLLQVQGRPGAPF”, “failed”. On to “RDRSTIARIQFRLPDGSSFTNQFPSDAPLEEARQFAAQTVGNTYGNFSLATMFPRREFTREDYKRRLLDLELAPSASVVLLPAGRPATSIVHSSSGDILMID”, for which the protein production result is listed as “not failed”. For the sequence “MFIHPHTSLTFEQCQKARVSRDSRFDGRFYVAVKTTGIFCRPICPANLPKEENVEYFTDKAQALKAGYRPCLRCRPDSAPGSWAWKGVETTFQRAISLIDRGELHHHSVSELAERVGISDRYLRMLFEQYLGMSPKQYAQYQQLMFAKQLLHSSSMSVTEVGFAAGFNSTRRFNDAFQKFLKLTPSQVRRREFDGVSTNRIALSYRGELNWQHMLDFYRLRAIEGVERVSGESYQRNVCLDNSKAWFKAIKGEGNLELEFEIEEVAKLQNLVSGIRRMFDLDTDICTVEQHLDYVAPGLVSNRGIRIPGVWNAWEAGVRAVLGQQVSVKAAIGQLNLLVKTLSGDADKRFFPTPDAIANADVSFLRMPQSRKETLVRFAQFMQSNAETDPQQWLALKGIGPWTVSYAQLRGQSQPDCFLDKDLVVKKAMQRYPSLNTHTAAPWGSYATFHLWNQS”, the protein production result is “failed”. For “MLLLWLVVLVLGVAYLAHRRTPPAPALGISAAYLILMGVFSHAPGWLLLVFWLLWLAVALPLALPDLRRRVLSGPLFAWFQKVLPPMSDTEREAIEAGTVWWDGELFSGRPDWQKLLDYPKAQLTEEEQAFVDGPTEELCAMVSDWDIGQRMDLPEEAWAFIKQHGFFGLIIPKEYGGKGFSAFAHSQVVMKLATRSGDLASTVMVPNSLGPAELLLHYGTDEQRQRYLPSLAKGDDIPCFALTGPYAGSDAGGMTDVGIVCKGEWEGREVLGLRLTWEKRYITLGPVATLLGLAFKCHDPDHLLGDEEDLGITLALIPTDTPGVEIGRRHVPLGAAFMNGPNSGKDVFVPLEYIIGGQEMIGKGWMMLMNCLSVGRSISLPAVGTSAGKASSYVSGRYAQVREQFNVPIAAFEGIQEALARIGGNAWLMDSARILTANAVDLGEKPSVLSAILKYHLTERGRECIAHAMDIHGGKGIIMGPNNYLGRSWQGAPIFITVEGANILSRNLMIFGQGAIRCHPYVLKEMELAQREDKDQAAREFDALLVKHIGFAVGNAASSFLLSLSCGHLGNAPGDRISRPYFRALNRLAASFALLADFSMMLLGGELKRKERLSARLGDVLSYLYLGSAALKRYHDLGNPDYLHPLLRWAMEENLGKAEAALEDLLNNFPSRFFGCALKVLVLPFGRRHKGPGDELDAEIAEILGRPDDDPALQAILAGAFLPKDPQDPVGALAHAFDAVRESAALEKTLHKAIKEGRVQPQAGQNPIDAGAAAGVLSAEQAQALHQAEAARRKVIDVDDFAKEELQLADGRIR”, the protein production entry was “failed”. As to “ASTVHEMGVFASLDDAVAAAKRAQQGLKSVAMRQLAIHAIREAGEKHARELAELAVSETGMGRVDDKFAKNVAQARGTPGVECLSPQVLTGDNGLTLIENAPWGVVASVTPSTNPAATVINNAISLIAAGNSVVFAPHPAAKKVSQRAITLLNQAVVAAGGPENLLVTVANPDIETAQRLFKYPGIGLLVVTGGEAVVDAARKHTNKRLIAAGAGNPPVVVDETADLPRAAQSIVKGASFDNN”, the protein production result is recorded as “failed”.

“MRKLLLGLSALTLATASAAAAQDPGPAAPVQYEVAFPNATHREARITATFRKVPKGALQLRMSRSSPGRYAIHEFAKNVYQVTAVDGAGKPLKVDRAEPYGWSVSGHDGTVKVTYTLYADRGDGTYSQIDTTHAHLNMPATFLWAVGYHDKPIRVRFERADPSWKIATQLPPVAGQPDSFWAPNLQYFMDSPTELSAMTVREWKVTDKGRDYTFRLALHHTGTEADADTFAEKLKAIVPEHIKVFGELPKFDYGEYTFIADYMPQITGDGMEHRNSTFISQPRSLFRGNFSQLGTASHELFHAWNVERIRPAELEPFDFTKANPTPSLWLAEGFTQYYGPLLIRRAGQSSMDEFLTGLSGTLNGVVNGPGRLYGSPQEMSLRAPFVDAAAALDPVNPNIFTSYYPYGAVIGLALDLQLRGRDKPLSLDDFMKQMWRAHGVTEKPYTPADVRAALAKTTGDQAFADAFFKASIEGSALPDFAPLLERAGLKLRQKAPKKAWLGAARVKVSGTELLLDAPPVPNSPLYGAGVEVGDRIISIGRFVFANESDWTDALDRLKPGEAMTVQFIQRGQVREAPMTIAADPTLEVVRFEKVDLKPTEAQLAFRTAWLGAEAEAAK”: the protein production entry is “failed”. Take “MGLKPSEVIELWPVKIFFIILSVTLFYNFALANGALEKLASHLLYKCRKFPQFLPLAIFFAATIIAGLGAGFYTVLAFMAPITLLLCKKTNMNMIIGGMAANYGALAGANFMTSQSGIIFRSLMENTGISSQTAFSYSSGIFVLTLIIPIAVLGIYTLWNRKSNSIVIEDQKPEPFDKKQKQSIFLIILMMSIVLVFPILHLVFPDVKTISFLNSKIDIAFLAITFSLISLLMKLADEKKVIALVPWRTLIMICGVGMLIALGVKLGIITTLSEWLANNVPVWVIPVLLCLISAIMSVFSSTLGVVAPTLFPIVPALALTSGLNPLVLFICIVVGAQSTAISPFSSGGSLIMASAPADIDKTKFFNQLLFKAIPVGVIAALIAIFALKFVI”: the protein production result is listed as “failed”.

On to “MTGMRKTLKATLAEARAQVEAALKEEGFGILTEIDVAATLKAKLGLEKPPYLILGACNPNLAARALEALPEIGLLLPCNVVLREAEEGVEVLIQDPKEMFRVLPEATQRALAPVAEEARTRLSRALSRL”, for which the protein production result is recorded as “not failed”.

Take “SGIIKMAIRFDRRAYPPQITPKMCLLEWCRREKLPQPVYETVQRTIDRMFCSVVTVAEQKYQSTLWDKSKKLAEQTAAIVCLRSQGLPEGRLGEESPSLNKRKREAPDQDPGGPR”: the protein production entry is on record as “not failed”. Under “MQEQVSNVRARIYKPAKSTMQSGHSKLKAWKLEFEPSCTQYTEPLMNWTGSHDTKQQVCLSFTTRELAIAYAVAHKIDYTVLQDNPRTIVPKSYADNFTKPRDM” stands “not failed”; under “MILVSLVVVLFLVLLNGVFSMSELAVVSARKARLQGFAERGDRGAKLALEMSEHPTRFLSAVQVGITLIGIFAGAYGQATIAAALDAWLEASVPALAKYSEAIATTLVVIGLTYVSVILGELVPKRLALIFPDAIARRMAPFLAVVATVLRPFVTLLTVSTAAVLRLMGVRDERNTSVTSEEVEAVLAEGADAGLIEPEERSMIQEVLRLGDRPVRVAMTPRRDLFWVSLADDTETVLKEIRASAHSRIVVATEGDLDGDVGVLLKKDLLDACLSGEPLDLKAHVQQPLAIPETMSLLKALQLFKSTSLHMALVVDEFGSLQGAITPLDLLEMIAGDFPEDHDDDEKRIIRREDGGWLIDARLDIQELNDHLGENFEADGGYHTVAGLILDRLGRLPTEGEHVEIGGFDLEIVDMDGSRIDKVILKPSKRRKEGQEG”, “failed”.
